The source of these data is patent US20260070987A1.

B1: equine IgG1 Q311D (antibody, part only; not given: variable domains, not shown: another chain or arm of the molecule)
constant: ASTTAPKVFALAPGCGTTSDSTVALGCLVSGYFPEPVKVSWNSGSLTSGVHTFPSVLQSSGFYSLSSMVTVPASTWTSETYICNVVHAASNFKVDKRIEPIPDNHQKVCDMSKCPKCPAPELLGGPSVFIFPPNPKDTLMITRTPEVTCVVVDVSQENPDVKFNWYMDGVEVRTATTRPKEEQFNSTYRVVSVLRIQHDDWLSGKEFKCKVNNQALPQPIERTITKTKGRSQEPQVYVLAPHPDELSKSKVSVTCLVKDFYPPEINIEWQSNGQPELETKYSTTQAQQDSDGSYFLYSKLSVDRNRWQQGTTFTCGVMHEALHNHYTQKNVSKNPGK
B2: equine IgG1 Q311G (antibody, part only; not given: variable domains, not shown: another chain or arm of the molecule)
constant: ASTTAPKVFALAPGCGTTSDSTVALGCLVSGYFPEPVKVSWNSGSLTSGVHTFPSVLQSSGFYSLSSMVTVPASTWTSETYICNVVHAASNFKVDKRIEPIPDNHQKVCDMSKCPKCPAPELLGGPSVFIFPPNPKDTLMITRTPEVTCVVVDVSQENPDVKFNWYMDGVEVRTATTRPKEEQFNSTYRVVSVLRIQHGDWLSGKEFKCKVNNQALPQPIERTITKTKGRSQEPQVYVLAPHPDELSKSKVSVTCLVKDFYPPEINIEWQSNGQPELETKYSTTQAQQDSDGSYFLYSKLSVDRNRWQQGTTFTCGVMHEALHNHYTQKNVSKNPGK
B3: equine IgG1 M252F (antibody, part only; not given: variable domains, not shown: another chain or arm of the molecule)
constant: ASTTAPKVFALAPGCGTTSDSTVALGCLVSGYFPEPVKVSWNSGSLTSGVHTFPSVLQSSGFYSLSSMVTVPASTWTSETYICNVVHAASNFKVDKRIEPIPDNHQKVCDMSKCPKCPAPELLGGPSVFIFPPNPKDTLFITRTPEVTCVVVDVSQENPDVKFNWYMDGVEVRTATTRPKEEQFNSTYRVVSVLRIQHQDWLSGKEFKCKVNNQALPQPIERTITKTKGRSQEPQVYVLAPHPDELSKSKVSVTCLVKDFYPPEINIEWQSNGQPELETKYSTTQAQQDSDGSYFLYSKLSVDRNRWQQGTTFTCGVMHEALHNHYTQKNVSKNPGK
B4: equine IgG1 Q311K (antibody, part only; not given: variable domains, not shown: another chain or arm of the molecule)
constant: ASTTAPKVFALAPGCGTTSDSTVALGCLVSGYFPEPVKVSWNSGSLTSGVHTFPSVLQSSGFYSLSSMVTVPASTWTSETYICNVVHAASNFKVDKRIEPIPDNHQKVCDMSKCPKCPAPELLGGPSVFIFPPNPKDTLMITRTPEVTCVVVDVSQENPDVKFNWYMDGVEVRTATTRPKEEQFNSTYRVVSVLRIQHKDWLSGKEFKCKVNNQALPQPIERTITKTKGRSQEPQVYVLAPHPDELSKSKVSVTCLVKDFYPPEINIEWQSNGQPELETKYSTTQAQQDSDGSYFLYSKLSVDRNRWQQGTTFTCGVMHEALHNHYTQKNVSKNPGK
B5: equine IgG1 Q311E (antibody, part only; not given: variable domains, not shown: another chain or arm of the molecule)
constant: ASTTAPKVFALAPGCGTTSDSTVALGCLVSGYFPEPVKVSWNSGSLTSGVHTFPSVLQSSGFYSLSSMVTVPASTWTSETYICNVVHAASNFKVDKRIEPIPDNHQKVCDMSKCPKCPAPELLGGPSVFIFPPNPKDTLMITRTPEVTCVVVDVSQENPDVKFNWYMDGVEVRTATTRPKEEQFNSTYRVVSVLRIQHEDWLSGKEFKCKVNNQALPQPIERTITKTKGRSQEPQVYVLAPHPDELSKSKVSVTCLVKDFYPPEINIEWQSNGQPELETKYSTTQAQQDSDGSYFLYSKLSVDRNRWQQGTTFTCGVMHEALHNHYTQKNVSKNPGK
B6: equine IgG1 Q311I (antibody, part only; not given: variable domains, not shown: another chain or arm of the molecule)
constant: ASTTAPKVFALAPGCGTTSDSTVALGCLVSGYFPEPVKVSWNSGSLTSGVHTFPSVLQSSGFYSLSSMVTVPASTWTSETYICNVVHAASNFKVDKRIEPIPDNHQKVCDMSKCPKCPAPELLGGPSVFIFPPNPKDTLMITRTPEVTCVVVDVSQENPDVKFNWYMDGVEVRTATTRPKEEQFNSTYRVVSVLRIQHIDWLSGKEFKCKVNNQALPQPIERTITKTKGRSQEPQVYVLAPHPDELSKSKVSVTCLVKDFYPPEINIEWQSNGQPELETKYSTTQAQQDSDGSYFLYSKLSVDRNRWQQGTTFTCGVMHEALHNHYTQKNVSKNPGK
B7: equine IgG1 Q311L (antibody, part only; not given: Variable domains, not shown: another chain or arm of the molecule)
constant: ASTTAPKVFALAPGCGTTSDSTVALGCLVSGYFPEPVKVSWNSGSLTSGVHTFPSVLQSSGFYSLSSMVTVPASTWTSETYICNVVHAASNFKVDKRIEPIPDNHQKVCDMSKCPKCPAPELLGGPSVFIFPPNPKDTLMITRTPEVTCVVVDVSQENPDVKFNWYMDGVEVRTATTRPKEEQFNSTYRVVSVLRIQHLDWLSGKEFKCKVNNQALPQPIERTITKTKGRSQEPQVYVLAPHPDELSKSKVSVTCLVKDFYPPEINIEWQSNGQPELETKYSTTQAQQDSDGSYFLYSKLSVDRNRWQQGTTFTCGVMHEALHNHYTQKNVSKNPGK
B8: equine IgG1 Q311H (antibody, part only; not given: variable domains, not shown: another chain or arm of the molecule)
constant: ASTTAPKVFALAPGCGTTSDSTVALGCLVSGYFPEPVKVSWNSGSLTSGVHTFPSVLQSSGFYSLSSMVTVPASTWTSETYICNVVHAASNFKVDKRIEPIPDNHQKVCDMSKCPKCPAPELLGGPSVFIFPPNPKDTLMITRTPEVTCVVVDVSQENPDVKFNWYMDGVEVRTATTRPKEEQFNSTYRVVSVLRIQHHDWLSGKEFKCKVNNQALPQPIERTITKTKGRSQEPQVYVLAPHPDELSKSKVSVTCLVKDFYPPEINIEWQSNGQPELETKYSTTQAQQDSDGSYFLYSKLSVDRNRWQQGTTFTCGVMHEALHNHYTQKNVSKNPGK
B9: equine IgG1 Q311N (antibody, part only; not given: Variable domains, not shown: another chain or arm of the molecule)
constant: ASTTAPKVFALAPGCGTTSDSTVALGCLVSGYFPEPVKVSWNSGSLTSGVHTFPSVLQSSGFYSLSSMVTVPASTWTSETYICNVVHAASNFKVDKRIEPIPDNHQKVCDMSKCPKCPAPELLGGPSVFIFPPNPKDTLMITRTPEVTCVVVDVSQENPDVKFNWYMDGVEVRTATTRPKEEQFNSTYRVVSVLRIQHNDWLSGKEFKCKVNNQALPQPIERTITKTKGRSQEPQVYVLAPHPDELSKSKVSVTCLVKDFYPPEINIEWQSNGQPELETKYSTTQAQQDSDGSYFLYSKLSVDRNRWQQGTTFTCGVMHEALHNHYTQKNVSKNPGK
B10: equine IgG1 Q311M (antibody, part only; not given: variable domains, not shown: another chain or arm of the molecule)
constant: ASTTAPKVFALAPGCGTTSDSTVALGCLVSGYFPEPVKVSWNSGSLTSGVHTFPSVLQSSGFYSLSSMVTVPASTWTSETYICNVVHAASNFKVDKRIEPIPDNHQKVCDMSKCPKCPAPELLGGPSVFIFPPNPKDTLMITRTPEVTCVVVDVSQENPDVKFNWYMDGVEVRTATTRPKEEQFNSTYRVVSVLRIQHMDWLSGKEFKCKVNNQALPQPIERTITKTKGRSQEPQVYVLAPHPDELSKSKVSVTCLVKDFYPPEINIEWQSNGQPELETKYSTTQAQQDSDGSYFLYSKLSVDRNRWQQGTTFTCGVMHEALHNHYTQKNVSKNPGK
B11: equine IgG1 Q311F (antibody, part only; not given: variable domains, not shown: another chain or arm of the molecule)
constant: ASTTAPKVFALAPGCGTTSDSTVALGCLVSGYFPEPVKVSWNSGSLTSGVHTFPSVLQSSGFYSLSSMVTVPASTWTSETYICNVVHAASNFKVDKRIEPIPDNHQKVCDMSKCPKCPAPELLGGPSVFIFPPNPKDTLMITRTPEVTCVVVDVSQENPDVKFNWYMDGVEVRTATTRPKEEQFNSTYRVVSVLRIQHFDWLSGKEFKCKVNNQALPQPIERTITKTKGRSQEPQVYVLAPHPDELSKSKVSVTCLVKDFYPPEINIEWQSNGQPELETKYSTTQAQQDSDGSYFLYSKLSVDRNRWQQGTTFTCGVMHEALHNHYTQKNVSKNPGK

This assay deals with equine FcRn (large alpha subunit p51) / equine beta-2-microglobulin complex, biotinylated (equine) (UniProt P30441). As to the kind of experiment: SPR (Biacore), pH 6. (Surface plasmon resonance follows binding to a sensor surface in real time, without labels.)
Sequence of UniProt P30441 (P30441 21-118, one chain of several): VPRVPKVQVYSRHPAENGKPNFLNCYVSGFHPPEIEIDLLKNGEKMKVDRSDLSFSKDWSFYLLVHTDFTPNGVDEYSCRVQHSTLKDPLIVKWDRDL
B1 returned a Kd of 54.6 nM.

For B2, the Kd is 20.1 nM.

Molecule B3 displayed a dissociation constant (Kd) of 47.5 nM.

The molecule B4 returned an equilibrium dissociation constant (Kd) of 14.7 nM.

In the case of B5, the dissociation constant Kd is 67.3 nM.

With B6, the Kd worked out at 12.6 nM.

On to B7, for which the Kd came to 16.1 nM.

The molecule B8 showed an equilibrium dissociation constant (Kd) of 24.3 nM.

Molecule B9 showed an equilibrium dissociation constant (Kd) of 24.3 nM.

Consider B10, for which the equilibrium dissociation constant (Kd) was 12 nM.

Regarding B11, the Kd was 20.3 nM.

As usually defined, the Kd is the free concentration of one partner at which half of the binding sites on the other are occupied at equilibrium, for simple one-to-one binding. Higher therefore signals weaker binding.
